How the values were obtained:
[1] = target: HLA-A*1101 (human); test: inhibition of 125I-labelled probe peptide binding to purified HLA-A*1101, gel filtration
[2] = target: T1, HLA-DR3 (DRB1*0301) (human); test: competition binding assay, purified HLA, 125I-labelled probe peptide, gel filtration
T1 construct: purified HLA class II molecule

[3] = target: T2, HLA-A*0101 (human); test: competition with 125I-labelled probe peptide for purified HLA-A*0101, gel filtration; relative to standard peptide
T2 construct: also called HLA-A1

[4] = target: HLA-B*0702 (human); test: competition with 125I probe peptide, purified HLA
[5] = target: HLA-B*5401 (human); test: competition vs 125I-labeled standard peptide, purified HLA
[6] = target: HLA-B*0702 (human); test: as above

B1: HER2/neu peptide, position 321, 10 amino acids (peptide)
peptide: EVTAEDGTQR
relative binding ratio (IC50 of standard peptide / IC50 of test peptide) [1]: 0.0001 relative binding ratio

B2: HER2/neu peptide, position 401, 9 amino acids (peptide)
peptide: ETLEEITGY
relative binding ratio (IC50 of standard peptide / IC50 of test peptide) [1]: 0.0002 relative binding ratio

B3: HER2/neu peptide PSGVKPDLSYMPIWK (position 601) (peptide)
peptide: PSGVKPDLSYMPIWK
notes: also called Her2/neu.601
relative binding ratio [2]: -0.0027 ratio to standard peptide

B4: HER2/neu peptide, position 1102, 11 amino acids (peptide)
peptide: PTHDPSPLQRY
notes: H is used here
relative binding ratio (IC50 of standard peptide / IC50 of test peptide) [3]: 0.016 relative binding ratio

B5: HER2/neu peptide, position 914, 10 amino acids (peptide)
peptide: ELMTFGAKPY
relative binding ratio (IC50 of standard peptide / IC50 of test peptide) [1]: 0.0002 relative binding ratio

B6: HER2/neu peptide NKEILDEAYVMAGVG (position 764) (peptide)
peptide: NKEILDEAYVMAGVG
notes: also called Her2/neu.764
relative binding ratio [2]: 0.0047 ratio to standard peptide

B7: Her2/neu.133 (8-mer) (peptide)
peptide: SPGGLREL
IC50 [4]: 100 nM

B8: HER2/neu peptide ETEYHADGGKVPIKW (position 874) (peptide)
peptide: ETEYHADGGKVPIKW
notes: also called Her2/neu.874
relative binding ratio [2]: -0.0027 ratio to standard peptide

B9: HER2/neu peptide, position 874, 10 amino acids (peptide)
peptide: ETEYHADGGK
relative binding ratio (IC50 of standard peptide / IC50 of test peptide) [1]: 0.0001 relative binding ratio

B10: HER2/neu peptide, position 672, 10 amino acids (peptide)
peptide: GILIKRRQQK
relative binding ratio (IC50 of standard peptide / IC50 of test peptide) [1]: 0.0014 relative binding ratio

B11: HER2/neu peptide, position 828, 8 amino acids (peptide)
peptide: QIAKGMSY
relative binding ratio (IC50 of standard peptide / IC50 of test peptide) [3]: -0.0021 relative binding ratio

B12: HER2/neu peptide, position 976, 10 amino acids (peptide)
peptide: FSRMARDPQR
relative binding ratio (IC50 of standard peptide / IC50 of test peptide) [1]: 0.001 relative binding ratio

B13: HER2/neu peptide, position 508, 10 amino acids (peptide)
peptide: GLACHQLCAR
relative binding ratio (IC50 of standard peptide / IC50 of test peptide) [1]: 0.0001 relative binding ratio

B14: HER2/neu peptide, position 915, 9 amino acids (peptide)
peptide: LMTFGAKPY
relative binding ratio (IC50 of standard peptide / IC50 of test peptide) [3]: 0.0011 relative binding ratio

B15: HER2/neu peptide SDVFDGDLGMGAAKG (position 1083) (peptide)
peptide: SDVFDGDLGMGAAKG
notes: also called Her2/neu.1083
relative binding ratio [2]: -0.0025 ratio to standard peptide

B16: HER2/neu peptide FVVIQNEDLGPASPL (position 986) (peptide)
peptide: FVVIQNEDLGPASPL
notes: also called Her2/neu.986
relative binding ratio [2]: -0.0025 ratio to standard peptide

B17: HER2/neu peptide RSLLEDDDMGDLVDA (position 1006) (peptide)
peptide: RSLLEDDDMGDLVDA
notes: also called Her2/neu.1006
relative binding ratio [2]: 0.008 ratio to standard peptide

B18: HER2/neu peptide, position 1038, 9 amino acids (peptide)
peptide: GAGGMVHHR
relative binding ratio (IC50 of standard peptide / IC50 of test peptide) [1]: 0.0043 relative binding ratio

B19: HER2/neu peptide, position 74, 10 amino acids (peptide)
peptide: LQDIQEVQGY
relative binding ratio (IC50 of standard peptide / IC50 of test peptide) [3]: 0.0015 relative binding ratio

B20: HER2/neu peptide, position 1213, 9 amino acids (peptide)
peptide: FSPAFDNLY
relative binding ratio (IC50 of standard peptide / IC50 of test peptide) [3]: 0.043 relative binding ratio

B21: HER2/neu peptide, position 1014, 10 amino acids (peptide)
peptide: MGDLVDAEEY
relative binding ratio (IC50 of standard peptide / IC50 of test peptide) [3]: 0.012 relative binding ratio

B22: HER2/neu peptide KNGVVKDVFAFGGAV (position 1177) (peptide)
peptide: KNGVVKDVFAFGGAV
notes: also called Her2/neu.1177
relative binding ratio [2]: -0.0025 ratio to standard peptide

B23: Her2/neu.649, 10-mer (peptide)
peptide: SPLTSIISAV
notes: 10-mer native HER2/neu peptide starting at position 649
IC50 [5]: 667 nM | IC50 [6]: 61 nM

B24: Her2/neu.336 (peptide)
peptide: KPCARVCYGL
notes: native HER2/neu peptide from position 336
IC50 [4]: 149 nM

B25: Her2/neu.642 (peptide)
peptide: CPAEQRASPL
notes: native HER2/neu peptide from position 642
IC50 [4]: 37 nM

B26: HER2/neu peptide, position 726, 10 amino acids (peptide)
peptide: LGSGAFGTVY
relative binding ratio (IC50 of standard peptide / IC50 of test peptide) [3]: 0.001 relative binding ratio

B27: HER2/neu peptide, position 447, 10 amino acids (peptide)
peptide: GLGISWLGLR
relative binding ratio (IC50 of standard peptide / IC50 of test peptide) [1]: 0.0001 relative binding ratio

B28: Her2/neu.133 (10-mer) (peptide)
peptide: SPGGLRELQL
IC50 [4]: 95 nM

B29: HER2/neu peptide, position 727, 9 amino acids (peptide)
peptide: GSGAFGTVY
relative binding ratio (IC50 of standard peptide / IC50 of test peptide) [3]: 0.0011 relative binding ratio

B30: HER2/neu peptide, position 728, 8 amino acids (peptide)
peptide: SGAFGTVY
relative binding ratio (IC50 of standard peptide / IC50 of test peptide) [3]: -0.0021 relative binding ratio

B31: HER2/neu peptide IWKFPDEEGACQPCP (position 613) (peptide)
peptide: IWKFPDEEGACQPCP
notes: also called Her2/neu.613
relative binding ratio [2]: -0.0027 ratio to standard peptide

B32: HER2/neu peptide, position 704, 10 amino acids (peptide)
peptide: GAMPNQAQMR
relative binding ratio (IC50 of standard peptide / IC50 of test peptide) [1]: 0.0041 relative binding ratio

— US20040018971A1 (published 2004)
